Experimental data from patent US20250376519A1 (JIANGSU HENGRUI PHARMACEUTICALS, published 2025).

T1: human DLL3 on cells (human, UniProt Q9NYJ7 27-618)
T1 sequence: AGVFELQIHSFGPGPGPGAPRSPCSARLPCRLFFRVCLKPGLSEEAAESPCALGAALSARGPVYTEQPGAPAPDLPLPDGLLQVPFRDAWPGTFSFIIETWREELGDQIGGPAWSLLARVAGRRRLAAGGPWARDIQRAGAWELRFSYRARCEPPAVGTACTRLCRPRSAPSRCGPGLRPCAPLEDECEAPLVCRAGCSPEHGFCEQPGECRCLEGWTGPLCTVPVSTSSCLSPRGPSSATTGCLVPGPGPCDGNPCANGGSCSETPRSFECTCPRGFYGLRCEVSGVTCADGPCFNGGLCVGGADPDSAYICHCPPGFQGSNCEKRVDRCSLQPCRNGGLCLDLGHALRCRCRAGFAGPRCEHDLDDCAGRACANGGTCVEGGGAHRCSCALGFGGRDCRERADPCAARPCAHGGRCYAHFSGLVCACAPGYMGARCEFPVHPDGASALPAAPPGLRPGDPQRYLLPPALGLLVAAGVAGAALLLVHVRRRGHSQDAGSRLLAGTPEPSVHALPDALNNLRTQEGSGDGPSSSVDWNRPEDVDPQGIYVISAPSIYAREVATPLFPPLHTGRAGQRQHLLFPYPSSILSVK


Assays:
human DLL3 on cells [1] = molecular target: T1, human DLL3 on cells; test: cell-based or functional assay
human DLL3 on cells [2] = molecular target: T1, human DLL3 on cells; test: cell-based or functional assay; remark: listed apart in the source
[3] = molecular target: T2, human CD3D&3E (ACRO, CDD-H52W1) (human, UniProt P04234 22-105; P07766 23-126); test: SPR Biacore 8K, Ab captured on Protein A
T2 construct: bought CD3 delta/epsilon protein
T2 sequence (P04234 22-105, chain 1 of 2): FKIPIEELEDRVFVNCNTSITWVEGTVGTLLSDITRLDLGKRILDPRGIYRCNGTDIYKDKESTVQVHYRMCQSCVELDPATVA
T2 sequence (P07766 23-126, chain 2 of 2): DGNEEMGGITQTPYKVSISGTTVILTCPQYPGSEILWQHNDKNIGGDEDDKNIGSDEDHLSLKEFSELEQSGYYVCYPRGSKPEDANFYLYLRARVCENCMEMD
Summary of the method: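 Antibodies captured on a Protein A chip for 18 s; DLL3 or CD3D&3E antigen flowed 180 s, then 600 s dissociation, with real-time detection. Regeneration used 10 mM glycine-HCl pH 1.5 between cycles. Kinetics were obtained by 1:1 model fitting.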

human DLL3 on cells [4] = molecular target: T1, human DLL3 on cells; test: cell-based or functional assay; remark: listed apart in the source

Row | EC50, Jurkat Lucia NFAT reporter with H82/DLL3 cells (human DLL3 on cells [2]) [nM] | Fold changes in activation, Jurkat Lucia NFAT reporter with H82/DLL3 cells (human DLL3 on cells [2]) [fold] | Kd [3] [nM] | koff [3] [s⁻¹] | kon [3] [M⁻¹ s⁻¹] | Binder | IC50, PBMC killing of H1184/lucG cells (human DLL3 on cells [1]) [nM] | Imax (%), PBMC killing of H1184/lucG cells (human DLL3 on cells [1]) [%] | IC50, PBMC killing of SHP77/lucG cells (human DLL3 on cells [4]) [nM] | Imax (%), PBMC killing of SHP77/lucG cells (human DLL3 on cells [4]) [%]
1 | 0.0177 | 18 | 46.7 | 0.00749 | 160000 | hu110-S107E-hot Ig (bispecific antibody, Format 1 (Hot-Ig, Titin/Obscurin-replaced DLL3 Fab), DLL3 x CD3) light 1: NIVMTQSPKSLAVSLGERATINCKASENVGIFVSWYQQKPGQSPKLLIYGASNRYTGVPDRFSGSGSATDFTLTISSLQAEDVADYYCGQSHSYPLTFGQGTKLEIKGGGGSSGAPRFLTRPKASVVSVGKDATLSCQIVGNPFPQVSWEKDKQPVTAGVRFRLAQDGDLYRLKILDLQLSDSGQYVCRARNAHGEAFACLGLQVDAEA heavy 1: EVQLVQSGAEVKKPGASVKVSCKTSGYTFTDYYMNWVRQAPGQSLEWMGIINPYQGGTSYTQKFKGRVTITVDKSASTAYMELSSLRSEDTAVYYCARHFYDSSYLTYSTMDYWGQGTTVTVSSGGGGSGIPPKIECLPIDISIDEGKVLTVASAFTGEPTPEVTWSTGGRKIHSQEQGRFHIENTDDSTTLTIKDVQKQDGGLYTLTLRNEFGSDSATVNIHIRSIDKTHTCPPCPAPEAAGGPSVFLFPPKPKDTLMISRTPEVTCVVVDVSHEDPEVKFNWYVDGVEVHNAKTKPREEQYNSTYRVVSVLTVLHQDWLNGKEYKCKVSNKALPAPIEKTISKAKGQPREPQVCTLPPSREEMTKNQVSLSCAVKGFYPSDIAVEWESNGQPENNYKTTPPVLDSDGSFFLVSKLTVDKSRWQQGNVFSCSVMHEALHNHYTQKSLSLSPGK heavy 2: not shown light 2: not shown | 0.0295 | 92 | – | –
2 | – | – | – | – | – | hu110-I2C-hot Ig (bispecific antibody, Format 1 (Hot-Ig, Titin/Obscurin-replaced DLL3 Fab), DLL3 x CD3) light 1: NIVMTQSPKSLAVSLGERATINCKASENVGIFVSWYQQKPGQSPKLLIYGASNRYTGVPDRFSGSGSATDFTLTISSLQAEDVADYYCGQSHSYPLTFGQGTKLEIKGGGGSSGAPRFLTRPKASVVSVGKDATLSCQIVGNPFPQVSWEKDKQPVTAGVRFRLAQDGDLYRLKILDLQLSDSGQYVCRARNAHGEAFACLGLQVDAEA heavy 1: EVQLVQSGAEVKKPGASVKVSCKTSGYTFTDYYMNWVRQAPGQSLEWMGIINPYQGGTSYTQKFKGRVTITVDKSASTAYMELSSLRSEDTAVYYCARHFYDSSYLTYSTMDYWGQGTTVTVSSGGGGSGIPPKIECLPIDISIDEGKVLTVASAFTGEPTPEVTWSTGGRKIHSQEQGRFHIENTDDSTTLTIKDVQKQDGGLYTLTLRNEFGSDSATVNIHIRSIDKTHTCPPCPAPEAAGGPSVFLFPPKPKDTLMISRTPEVTCVVVDVSHEDPEVKFNWYVDGVEVHNAKTKPREEQYNSTYRVVSVLTVLHQDWLNGKEYKCKVSNKALPAPIEKTISKAKGQPREPQVCTLPPSREEMTKNQVSLSCAVKGFYPSDIAVEWESNGQPENNYKTTPPVLDSDGSFFLVSKLTVDKSRWQQGNVFSCSVMHEALHNHYTQKSLSLSPGK heavy 2: not shown light 2: not shown | – | – | 0.0222 | 96
3 | 0.00636 | – | – | – | – | hu110-I2C-Y body (bispecific antibody, Format 2 (Y body: DLL3 Fab-Fc hole + CD3 scFv-Fc knob)) light: NIVMTQSPKSLAVSLGERATINCKASENVGIFVSWYQQKPGQSPKLLIYGASNRYTGVPDRFSGSGSATDFTLTISSLQAEDVADYYCGQSHSYPLTFGQGTKLEIKRTVAAPSVFIFPPSDEQLKSGTASVVCLLNNFYPREAKVQWKVDNALQSGNSQESVTEQDSKDSTYSLSSTLTLSKADYEKHKVYACEVTHQGLSSPVTKSFNRGEC heavy: EVQLVQSGAEVKKPGASVKVSCKTSGYTFTDYYMNWVRQAPGQSLEWMGIINPYQGGTSYTQKFKGRVTITVDKSASTAYMELSSLRSEDTAVYYCARHFYDSSYLTYSTMDYWGQGTTVTVSSASTKGPSVFPLAPSSKSTSGGTAALGCLVKDYFPEPVTVSWNSGALTSGVHTFPAVLQSSGLYSLSSVVTVPSSSLGTQTYICNVNHKPSNTKVDKKVEPKSCDKTHTCPPCPAPEAAGGPSVFLFPPKPKDTLMISRTPEVTCVVVDVSHEDPEVKFNWYVDGVEVHNAKTKPREEQYNSTYRVVSVLTVLHQDWLNGKEYKCKVSNKALPAPIEKTISKAKGQPREPQVCTLPPSREEMTKNQVSLSCAVKGFYPSDIAVEWESNGQPENNYKTTPPVLDSDGSFFLVSKLTVDKSRWQQGNVFSCSVMHEALHNHYTQKSLSLSPGK not shown | 0.00642 | 98 | 0.0338 | 100
